This is an account of results in article PMC5576569 (Journal of molecular biology, 2017).

The data set concerns the molecule itself. Kind of data set: AUC.

B1: SSB-ΔL, linkerless variant of E. coli SSB (SSBΔ115–168) (natural protein, UniProt P0AGE0 2-178, looked up)
chain: ASRGVNKVILVGNLGQDPEVRYMPNGGAVANITLATSESWRDKATGEMKEQTEWHRVVLFGKLAEVASEYLRKGSQVYIEGQLRTRKWTDQSGQDRYTTEVVVNVGGTMQMLGGMDFDDDIPF
For B1, the “stoichiometry N” value was 4.
